Measurements taken from patent US20180066067A1 (Novartis, published 2018).

T1: ZNRF3 ΔRING (missing amino acids 293-334), stably expressed on HEK293 cells (human, UniProt Q9ULT6 56-936)
T1 construct: No tag is stated for the cell line used in FACS; also called ZNRF3 lacking the RING domain
T1 sequence: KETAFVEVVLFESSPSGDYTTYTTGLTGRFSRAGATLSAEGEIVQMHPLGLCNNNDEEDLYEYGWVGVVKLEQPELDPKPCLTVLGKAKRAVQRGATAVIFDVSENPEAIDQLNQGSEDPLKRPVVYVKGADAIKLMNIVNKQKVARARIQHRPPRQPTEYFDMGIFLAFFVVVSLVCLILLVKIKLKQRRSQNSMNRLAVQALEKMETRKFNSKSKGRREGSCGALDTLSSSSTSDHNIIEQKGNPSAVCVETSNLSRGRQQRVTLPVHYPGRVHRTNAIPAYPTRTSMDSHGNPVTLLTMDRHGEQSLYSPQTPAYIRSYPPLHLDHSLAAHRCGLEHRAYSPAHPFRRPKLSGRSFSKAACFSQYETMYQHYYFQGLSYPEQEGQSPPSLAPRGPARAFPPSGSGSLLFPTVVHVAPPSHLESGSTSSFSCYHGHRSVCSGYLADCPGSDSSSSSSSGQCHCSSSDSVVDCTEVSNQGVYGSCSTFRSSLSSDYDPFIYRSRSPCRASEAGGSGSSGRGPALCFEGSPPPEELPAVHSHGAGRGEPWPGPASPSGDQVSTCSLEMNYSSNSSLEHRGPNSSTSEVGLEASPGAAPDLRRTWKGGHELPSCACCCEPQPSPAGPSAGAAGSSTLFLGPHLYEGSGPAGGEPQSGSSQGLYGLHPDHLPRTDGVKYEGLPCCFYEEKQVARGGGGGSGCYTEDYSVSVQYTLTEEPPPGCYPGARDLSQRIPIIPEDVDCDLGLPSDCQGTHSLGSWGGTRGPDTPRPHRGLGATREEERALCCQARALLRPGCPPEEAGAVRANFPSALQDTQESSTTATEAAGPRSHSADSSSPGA

T2: Fc-ZNRF3 ECD (extracellular domain, amino acids 56-219 of SEQ ID NO: 1) (human, UniProt Q9ULT6 56-219)
T2 construct: The order of the parts follows the printed name 'Fc-ZNRF3 ECD'; also called purified ZNRF3 extracellular domain; not shown: Fc part
T2 sequence: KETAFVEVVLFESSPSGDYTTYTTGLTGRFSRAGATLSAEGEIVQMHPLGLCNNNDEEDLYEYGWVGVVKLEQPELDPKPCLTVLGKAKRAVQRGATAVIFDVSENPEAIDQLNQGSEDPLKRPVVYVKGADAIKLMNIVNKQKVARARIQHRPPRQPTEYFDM

T3: N-terminal Myc-tagged FZD4 (Frizzled 4) (UniProt Q9ULV1 37-537, limits assumed)
T3 construct: whole, on cells; On transiently transfected HEK293 cells; not shown: N-terminal Myc tag
T3 sequence (looked up): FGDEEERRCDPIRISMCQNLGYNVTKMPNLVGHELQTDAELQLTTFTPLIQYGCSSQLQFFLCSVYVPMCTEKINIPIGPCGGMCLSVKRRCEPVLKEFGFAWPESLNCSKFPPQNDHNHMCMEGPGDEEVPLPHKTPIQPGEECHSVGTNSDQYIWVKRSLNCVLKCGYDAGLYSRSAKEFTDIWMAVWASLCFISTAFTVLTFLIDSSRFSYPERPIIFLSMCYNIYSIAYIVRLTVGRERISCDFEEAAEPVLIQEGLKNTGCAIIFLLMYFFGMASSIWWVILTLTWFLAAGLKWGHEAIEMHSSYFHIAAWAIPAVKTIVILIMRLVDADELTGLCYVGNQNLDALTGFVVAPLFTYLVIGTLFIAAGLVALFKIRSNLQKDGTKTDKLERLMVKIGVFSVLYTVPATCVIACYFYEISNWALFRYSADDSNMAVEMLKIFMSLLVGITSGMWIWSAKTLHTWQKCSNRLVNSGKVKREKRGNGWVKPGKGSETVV

B1: Fab clone Ab2 (Fab, V domains shown)
VH: EVQLVESGGGLVKPGGSLRLSCAASGFTFSDYGIHWVRQAPGKGLEWVGRIKSKTDGGITEYAAPVKGRFTISRDDSKNTLYLQMNSLKTEDTAVYYCARAIYYLEAFDVWGQGTLVTVSS
VL: DIELTQPPSVSVSPGQTASITCSGDSLGSYYVHWYQQKPGQAPVLVIYRNKQRPSGIPERFSGSNSGNTATLTISGTQAEDEADYYCQTYDWMYSSRVFGGGTKLTVLG
notes: also called parental Ab2; ZNRF3 hFab
B2: ZNRF3 P103A ECD-TM (receptor, not shown: small tags and cut ends)
chain: KETAFVEVVLFESSPSGDYTTYTTGLTGRFSRAGATLSAEGEIVQMHALGLCNNNDEEDLYEYGWVGVVKLEQPELDPKPCLTVLGKAKRAVQRGATAVIFDVSENPEAIDQLNQGSEDPLKRPVVYVKGADAIKLMNIVNKQKVARARIQHRPPRQPTEYFDMGIFLAFFVVVSLVCLILLVKIKLKQRRSQNSMNRLAV
notes: On transiently transfected HEK293 cells, N-terminally Myc-tagged
B3: RSPO1-GFP (ligand, UniProt Q2MKA7 21-263, looked up)
chain: SRGIKGKRQRRISAEGSQACAKGCELCSEVNGCLKCSPKLFILLERNDIRQVGVCLPSCPPGYFDARNPDMNKCIKCKIEHCEACFSHNFCTKCKEGLYLHKGRCYPACPEGSSAANGTMECSSPAQCEMSEWSPWGPCSKKQQLCGFRRGSEERTRRVLHAPVGDHAACSDTKETRRCTVRRVPCPEGQKRRKGGQGRRENANRNLARKESKEAGAGSRRRKGQQQQQQQGTVGPLTSAGPA
notes: Used as conditioned medium; The order of the parts follows the printed name; also called R-spondin 1 GFP fusion; R-spondin; not shown: GFP
B4: Fab clone Ab1 (Fab, V domains shown)
VH: QVQLVQSGAEVKKPGASVKVSCKASGYTFTSYHMHWVRQAPGQGLEWMGWINPYTGDTNYAQKFQGRVTMTRDTSISTAYMELSRLRSEDTAVYYCAREKVYMDIWGQGTLVTVSS
VL: DIELTQPPSVSVSPGQTASITCSGDSIPSKYAHWYQQKPGQAPVLVIYGKSHRPSGIPERFSGSNSGNTATLTISGTQAEDEADYYCAAWDLLGDGWVFGGGTKLTVLG
notes: Fab from phage display panning on Fc-ZNRF3 ECD; Light chain Lch-lambda3, heavy chain Hch-VH1B; the heavy chain entry carries C-terminal tags; also called ZNRF3 hFab

Key:
[1] = target: T1, ZNRF3 ΔRING (missing amino acids …); assay: FACS on HEK293 cells stably expressing ZNRF3 ΔRING
[2] = target: T2, Fc-ZNRF3 ECD (extracellular domain, …); assay: ELISA on Fc-ZNRF3 ECD
RSPO1-GFP = target: B3; assay: cell-based binding assay: RSPO1-GFP conditioned medium for 1 hour on transfected HEK293 cells, immunofluorescence
Experimental: (§1) Since ZNRF3 regulates the membrane level of Frizzled proteins, we tested whether R-spondin enhances Wnt signaling through inhibiting ZNRF3. […] To do so, the inventors transiently transfected HEK293 cells with N-terminal Myc-tagged FZD4 (Frizzled 4), or ZNRF3 ECD-TM, or ZNRF3 P103A ECD-TM, then incubated these cells with RSPO1-GFP conditioned medium for 1 hour. We determined the binding of RSPO1-GFP to Myc tagged proteins expressed on the cell surface using immunoflurorescence using anti-GFP and anti-Myc antibodies.

[3] = target: T3, N-terminal Myc-tagged FZD4 (Frizzled 4); assay: as above
Experimental: as §1

B1
binding result [1]: binds
binding result [2]: binds

B2
binding result (RSPO1-GFP): no binding

B3
binding result [3]: no binding

B4
binding result [1]: binds
binding result [2]: binds
